The target of this assay is human FGFR1-IIIb (human). Kind of assay: SPR.

What is called Kd is a measure of binding affinity in units of concentration. Low values mean a tighter complex, high ones a looser complex.

human FGFR1-IIIb (human), sequence (P11362 22-822): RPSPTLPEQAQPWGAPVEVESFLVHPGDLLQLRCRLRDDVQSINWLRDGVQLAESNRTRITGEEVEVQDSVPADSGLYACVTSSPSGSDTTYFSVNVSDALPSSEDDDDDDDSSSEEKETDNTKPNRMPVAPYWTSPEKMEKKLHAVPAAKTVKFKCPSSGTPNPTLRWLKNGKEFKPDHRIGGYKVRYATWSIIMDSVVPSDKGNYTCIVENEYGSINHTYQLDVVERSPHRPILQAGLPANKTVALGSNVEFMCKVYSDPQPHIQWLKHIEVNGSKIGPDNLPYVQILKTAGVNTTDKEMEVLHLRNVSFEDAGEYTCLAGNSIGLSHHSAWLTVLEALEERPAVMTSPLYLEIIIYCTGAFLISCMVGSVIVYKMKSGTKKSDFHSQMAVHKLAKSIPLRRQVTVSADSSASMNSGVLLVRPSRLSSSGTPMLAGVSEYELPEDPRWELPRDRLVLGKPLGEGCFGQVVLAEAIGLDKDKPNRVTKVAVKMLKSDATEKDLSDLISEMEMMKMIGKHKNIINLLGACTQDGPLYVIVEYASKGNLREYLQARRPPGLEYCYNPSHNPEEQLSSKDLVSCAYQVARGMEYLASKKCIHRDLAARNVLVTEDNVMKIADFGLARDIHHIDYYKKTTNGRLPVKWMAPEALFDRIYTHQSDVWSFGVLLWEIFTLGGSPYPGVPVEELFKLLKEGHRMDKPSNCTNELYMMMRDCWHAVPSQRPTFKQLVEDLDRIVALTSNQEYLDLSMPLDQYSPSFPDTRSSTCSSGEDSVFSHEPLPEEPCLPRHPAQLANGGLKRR

Substance “native, recombinant FGF-2 (from UniProt P09038 1-288) (ligand)” had a Kd of 952 nM.
